PMC8223533

What was measured:
[1] = biological target: SctV (SsaV) of the Salmonella enterica serovar Typhimurium SPI-2 injectisome, full-length, C-terminal 6xHis (Salmonella enterica serovar Typhimurium (strain 12023)) (UniProt P74856); assay: cryo-EM structure; DDM-solubilised full-length SctV at ~1 mg/ml on continuous carbon film; C9 symmetry imposed, refinement focused on the cytoplasmic domain; buffer pH 8.0
[2] = biological target: SctV (SsaV) of the Salmonella enterica serovar Typhimurium SPI-2 injectisome, full-length, C-terminal 6xHis (Salmonella enterica serovar Typhimurium (strain 12023)) (UniProt P74856); assay: SEC; Superose 6 10/300, 50 mM Tris-HCl pH 8.0, 50 mM NaCl, 0.03% DDM, 5 mM DTT; DDM-solubilised SctV
[3] = biological target: SctV (SsaV) of the Salmonella enterica serovar Typhimurium SPI-2 injectisome, full-length, C-terminal 6xHis (Salmonella enterica serovar Typhimurium (strain 12023)) (UniProt P74856); assay: negative stain EM; purified SctV at about 0.05 mg/ml, 2% uranyl acetate, continuous carbon grids
[4] = biological target: SctV (SsaV) of the Salmonella enterica serovar Typhimurium SPI-2 injectisome, full-length, C-terminal 6xHis (Salmonella enterica serovar Typhimurium (strain 12023)) (UniProt P74856); assay: cryo-EM 2D classification; amphipol A8-35-stabilised SctV on UltrAufoil gold grids without support film; 2D class averages only

Measured: stoichiometry N

SctV (SsaV) of the Salmonella enterica serovar Typhimurium SPI-2 injectisome, full-length, C-terminal 6xHis (from UniProt P74856 1-681) (natural protein)
9: all assays above
